Test results: article PMC11681983

Experiments:
VEGF [1] = molecular target: VEGF (UniProt P15692); assay: SPR; Biacore, n = 3
VEGF [2] = molecular target: VEGF (UniProt P15692); assay: ELISA; direct binding ELISA to IL-17A or VEGF, measured in duplicate, n = 2; who was coated is not told
VEGF [3] = molecular target: VEGF (UniProt P15692)

VEGF, sequence (P15692 whole entry): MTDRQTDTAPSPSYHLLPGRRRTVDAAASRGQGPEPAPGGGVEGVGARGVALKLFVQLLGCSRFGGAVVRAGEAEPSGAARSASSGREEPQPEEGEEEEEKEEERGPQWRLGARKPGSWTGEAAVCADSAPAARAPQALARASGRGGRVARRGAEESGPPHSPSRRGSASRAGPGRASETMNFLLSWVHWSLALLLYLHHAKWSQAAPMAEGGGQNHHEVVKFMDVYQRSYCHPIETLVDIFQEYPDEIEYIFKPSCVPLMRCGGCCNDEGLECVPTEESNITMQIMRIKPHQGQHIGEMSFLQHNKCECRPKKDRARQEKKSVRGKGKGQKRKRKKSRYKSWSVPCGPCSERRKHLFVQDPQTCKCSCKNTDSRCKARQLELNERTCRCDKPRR

Kd (VEGF [1]): 0.011 nM
EC50 (VEGF [2]): 0.37 nM
luciferase signal of KDR/NFAT-RE HEK293 reporter cells with 30 ng/mL VEGF; blocks signalling of VEGF through KDR (VEGF [3]): 0.26 nM
B1: bispecific fusion protein 17V05 (bispecific antibody, V domains shown)
VH: EVQLVESGGGLVQPGGSLRLSCAASGFTFSSFDMSWGRQAPGKRLEWVAFMSSGGSTYYPDSVKGRFTISRDNSKNTLYLQMNSLRAEDTAVYYCARGERYGSYWGQGTLVTVSS
VL: DIQMTQSPSSLSASVGDRVTITCKASDHINNWLAWYQQKPGKAPKLLISGATSLETGVPSRFSGSGSGTDYTLTISSLQPEDFATYYCQQYWSTPFTFGSGTKLEIK
